Several values for one entry are separate records, joined by “and”; a condition that tells them apart may be missing. Identical values can stand only once. Non-standard residues stand in square brackets, D forms with d. No end group written: not given here. hArg = N=C(N)NCCCC[C@H](N)C(=O)O; Ac5c = NC1(C(=O)O)CCCC1; Deg = CCC(N)(CC)C(=O)O; Ac3c = NC1(C(=O)O)CC1; Aib = CC(C)(N)C(=O)O
Assays:
[1] = target: T1, recombinant P1R chimera expressed in HKRK-B28 cells (opossum P1R from the N-terminus to the mid region of … (opossum; rat, UniProt P25107 27-288; P25961 295-591, limits assumed); experiment: cell-based or functional assay
[2] = target: T1, recombinant P1R chimera expressed in …; experiment: competition binding on B28 cells against 125I-PTH(1-21) tracer (SEQ ID NO 36)
Procedure: Competition Binding. Binding reactions were performed with HKRK-B28 cells or in COS-7 cells in 24-well plates. The cells were rinsed with 0.5 mL of binding buffer, and then treated successively with 100 μL binding buffer, 100 μL of binding buffer containing various amounts of unlabeled competitor ligand, and 100 μL of binding buffer containing ca. 100,000 cpm of ¹²⁵I-[Aib^{1,3},Nle⁸,Gln¹⁰,Har¹¹,Ala¹²,Trp¹⁴,Arg¹⁹,Tyr²¹]rPTH(1-21) (SEQ. ID. NO. 36) (ca. 26 fmol; final volume=300 μL). Incubations were 4 to 6 h at 4° C., at which time near equilibrium conditions were attained. Cells were then placed on ice, the binding medium was removed, and the monolayer was rinsed three times with 0.5 mL of cold binding buffer. The cells were subsequently lysed with 0.5 mL 5N NaOH and counted for radioactivity. For each tracer and in each experiment, the non-specific binding was determined as the radioactivity that bound in the presence of the same unlabeled peptide at a concentration of 1 μM, and was ˜1% of total radioactivity added for each tracer. The maximum specific binding (B₀) was the total radioactivity bound in the absence of competing ligand, corrected for nonspecific binding, and for each tracer, ranged from 8% to 20% of the total radioactivity added. Nonlinear regression was used to calculate binding IC₅₀ values (see below). Scatchard transformations of homologous competition binding data derived from studies with 26 fmol of ¹²⁵I-[Aib^{1,3},Nle⁸,Gln¹⁰,Har¹¹,Ala¹²,Trp¹⁴, Arg¹⁹,Tyr²¹]rPTH(1-21) (SEQ. ID. NO. 36) were employed for estimations of apparent equilibrium dissociation constant (kDapps) and total number of ligand binding sites (Bₘₐₓ), assuming a single class of binding sites and equal affinities of the iodinated and non iodinated ligand.

[3] = target: T2, P1R-delNt, a recombinant human PTH-1 receptor construct in which most of the amino-terminal extracellular … (human, UniProt Q03431 23-593, limits assumed); experiment: cell-based or functional assay
T2 sequence (looked up): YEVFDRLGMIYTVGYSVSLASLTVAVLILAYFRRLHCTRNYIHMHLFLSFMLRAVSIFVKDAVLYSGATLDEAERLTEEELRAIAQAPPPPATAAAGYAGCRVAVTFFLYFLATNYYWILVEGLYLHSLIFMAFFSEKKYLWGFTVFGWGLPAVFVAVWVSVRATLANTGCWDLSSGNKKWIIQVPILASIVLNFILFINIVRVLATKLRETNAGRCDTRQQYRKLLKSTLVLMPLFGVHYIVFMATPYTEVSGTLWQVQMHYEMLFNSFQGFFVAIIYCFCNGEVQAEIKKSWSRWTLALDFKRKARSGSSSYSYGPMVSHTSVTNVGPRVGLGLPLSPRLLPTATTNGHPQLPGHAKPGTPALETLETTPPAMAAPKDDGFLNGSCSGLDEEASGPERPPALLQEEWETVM

T1 sequence (P25107 other isoform, or with tags, fused parts or gaps limits assumed): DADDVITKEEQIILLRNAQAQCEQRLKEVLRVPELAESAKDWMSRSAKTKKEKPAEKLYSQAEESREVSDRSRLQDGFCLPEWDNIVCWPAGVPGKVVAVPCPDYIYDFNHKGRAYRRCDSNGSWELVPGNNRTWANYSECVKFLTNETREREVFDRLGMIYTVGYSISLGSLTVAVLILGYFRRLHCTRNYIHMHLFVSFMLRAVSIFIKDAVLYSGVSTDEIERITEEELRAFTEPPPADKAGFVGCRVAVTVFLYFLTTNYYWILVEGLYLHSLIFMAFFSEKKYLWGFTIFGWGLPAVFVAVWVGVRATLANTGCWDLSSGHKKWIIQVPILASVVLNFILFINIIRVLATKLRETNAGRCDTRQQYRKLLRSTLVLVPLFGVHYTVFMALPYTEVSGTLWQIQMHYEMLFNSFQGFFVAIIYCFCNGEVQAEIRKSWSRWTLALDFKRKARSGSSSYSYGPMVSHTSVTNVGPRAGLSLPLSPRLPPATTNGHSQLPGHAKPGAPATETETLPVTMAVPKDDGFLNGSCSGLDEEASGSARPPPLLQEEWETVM

B1: [M]PTH(1-14) analog in which alanine-3 is substituted with 1-aminocyclopentane-1-carboxylic acid (Ac5c) (peptide)
peptide: AV[Ac5c]EIQLMHQ[hArg]AKW-NH2
modifications: N-terminus assumed
SMILES: CC[C@H](C)[C@H](NC(=O)[C@H](CCC(=O)O)NC(=O)C1(NC(=O)[C@@H](NC(=O)[C@H](C)N)C(C)C)CCCC1)C(=O)N[C@@H](CCC(N)=O)C(=O)N[C@@H](CC(C)C)C(=O)N[C@@H](CCSC)C(=O)N[C@@H](Cc1c[nH]cn1)C(=O)N[C@@H](CCC(N)=O)C(=O)N[C@@H](CCCCNC(=N)N)C(=O)N[C@@H](C)C(=O)N[C@@H](CCCCN)C(=O)N[C@@H](Cc1c[nH]c2ccccc12)C(N)=O
notes: also called Ac5c^3-containing analog; Ac5c-3
For B1, the “cAMP-stimulating potency, fold increase over the parent analog” value [1] was less than 2 fold and the IC50 [2] was roughly 3 µM.

B2: [M]PTH(1-14) analog in which alanine-3 is substituted with α,α-diethylglycine (Deg) (peptide)
peptide: H-AV[Deg]EIQLMHQ[hArg]AKW-NH2
SMILES: CC[C@H](C)[C@H](NC(=O)[C@H](CCC(=O)O)NC(=O)C(CC)(CC)NC(=O)[C@@H](NC(=O)[C@H](C)N)C(C)C)C(=O)N[C@@H](CCC(N)=O)C(=O)N[C@@H](CC(C)C)C(=O)N[C@@H](CCSC)C(=O)N[C@@H](Cc1c[nH]cn1)C(=O)N[C@@H](CCC(N)=O)C(=O)N[C@@H](CCCCNC(=N)N)C(=O)N[C@@H](C)C(=O)N[C@@H](CCCCN)C(=O)N[C@@H](Cc1c[nH]c2ccccc12)C(N)=O
notes: also called Deg^3-containing analog; Deg-3
B2 was tested, and the “cAMP-stimulating potency, fold diminished against the parent analog” value [1] was roughly 10 fold, the “signaling potency, fold diminished relative to parent [M]PTH(1-14)” value [1] was roughly 40 fold and the IC50 [2] was roughly 3 µM. The “fold improved affinity relative to the parent [M]PTH(1-14)” value [2] was roughly 1.5 fold.

B3: [Aib^1,3,Gln^10,Har^11,Ala^12,Trp^14]PTH(1-14)NH2 (peptide)
peptide: [Aib]V[Aib]EIQLMHQ[hArg]AKW-NH2
modifications: N-terminus assumed
SMILES: CC[C@H](C)[C@H](NC(=O)[C@H](CCC(=O)O)NC(=O)C(C)(C)NC(=O)[C@@H](NC(=O)C(C)(C)N)C(C)C)C(=O)N[C@@H](CCC(N)=O)C(=O)N[C@@H](CC(C)C)C(=O)N[C@@H](CCSC)C(=O)N[C@@H](Cc1c[nH]cn1)C(=O)N[C@@H](CCC(N)=O)C(=O)N[C@@H](CCCCNC(=N)N)C(=O)N[C@@H](C)C(=O)N[C@@H](CCCCN)C(=O)N[C@@H](Cc1c[nH]c2ccccc12)C(N)=O
With B3 the “cAMP EC50 in LdelNt-2 cells” value [3] was 0.0064 µM.

B4: [Ac5c^1,M]PTH(1-14) (peptide)
peptide: [Ac5c]VAEIQLMHQ[hArg]AKW-NH2
modifications: N-terminus assumed
SMILES: CC[C@H](C)[C@H](NC(=O)[C@H](CCC(=O)O)NC(=O)[C@H](C)NC(=O)[C@@H](NC(=O)C1(N)CCCC1)C(C)C)C(=O)N[C@@H](CCC(N)=O)C(=O)N[C@@H](CC(C)C)C(=O)N[C@@H](CCSC)C(=O)N[C@@H](Cc1c[nH]cn1)C(=O)N[C@@H](CCC(N)=O)C(=O)N[C@@H](CCCCNC(=N)N)C(=O)N[C@@H](C)C(=O)N[C@@H](CCCCN)C(=O)N[C@@H](Cc1c[nH]c2ccccc12)C(N)=O
notes: also called Ac5c (position 1) analog; Ac5c^1 modification
With B4 the “cAMP accumulation, fold more potent than the parent analog” value [1] was 61 fold, the “cAMP potency, fold improvement relative to parent [M]PTH(1-14)” value [1] was roughly 35 fold and the “fold improved affinity relative to the parent [M]PTH(1-14)” value [2] was 50 fold.

B5: [Ac5c^1,Aib^3,Gln^10]PTH(1-10)NH2 (peptide)
peptide: [Ac5c]V[Aib]EIQLMHQ-NH2
modifications: N-terminus assumed
SMILES: CC[C@H](C)[C@H](NC(=O)[C@H](CCC(=O)O)NC(=O)C(C)(C)NC(=O)[C@@H](NC(=O)C1(N)CCCC1)C(C)C)C(=O)N[C@@H](CCC(N)=O)C(=O)N[C@@H](CC(C)C)C(=O)N[C@@H](CCSC)C(=O)N[C@@H](Cc1c[nH]cn1)C(=O)N[C@@H](CCC(N)=O)C(N)=O
In the case of B5, the “cAMP EC50 in HKRK-B28 cells” value [1] is reported as roughly 3 µM, the “increase in cAMP levels relative to basal, peptide at 10 µM, HKRK-B28 cells” value [1] is reported as 33 fold and the “cAMP EC50 in LdelNt-2 cells” value [3] is reported as ~40 µM and 37 µM.

B6: [Ac5c^1,Aib^3]PTH(1-9)NH2 (peptide)
peptide: [Ac5c]V[Aib]EIQLMH-NH2
modifications: N-terminus assumed
SMILES: CC[C@H](C)[C@H](NC(=O)[C@H](CCC(=O)O)NC(=O)C(C)(C)NC(=O)[C@@H](NC(=O)C1(N)CCCC1)C(C)C)C(=O)N[C@@H](CCC(N)=O)C(=O)N[C@@H](CC(C)C)C(=O)N[C@@H](CCSC)C(=O)N[C@@H](Cc1c[nH]cn1)C(N)=O
B6 was tested, and the “increase in cAMP levels relative to basal, peptide at 1×10^-4M” value [1] was 6 fold.

B7: [Aib^1,3,Gln^10]PTH(1-10)NH2 (peptide)
peptide: [Aib]V[Aib]EIQLMHQ-NH2
modifications: N-terminus assumed
SMILES: CC[C@H](C)[C@H](NC(=O)[C@H](CCC(=O)O)NC(=O)C(C)(C)NC(=O)[C@@H](NC(=O)C(C)(C)N)C(C)C)C(=O)N[C@@H](CCC(N)=O)C(=O)N[C@@H](CC(C)C)C(=O)N[C@@H](CCSC)C(=O)N[C@@H](Cc1c[nH]cn1)C(=O)N[C@@H](CCC(N)=O)C(N)=O
In the case of B7, the “increase in cAMP accumulation, peptide at 1×10^-4M” value [1] is reported as 2 fold.

B8: [Deg^1,M]PTH(1-14) (peptide)
peptide: [Deg]VAEIQLMHQ[hArg]AKW-NH2
modifications: N-terminus assumed
SMILES: CC[C@H](C)[C@H](NC(=O)[C@H](CCC(=O)O)NC(=O)[C@H](C)NC(=O)[C@@H](NC(=O)C(N)(CC)CC)C(C)C)C(=O)N[C@@H](CCC(N)=O)C(=O)N[C@@H](CC(C)C)C(=O)N[C@@H](CCSC)C(=O)N[C@@H](Cc1c[nH]cn1)C(=O)N[C@@H](CCC(N)=O)C(=O)N[C@@H](CCCCNC(=N)N)C(=O)N[C@@H](C)C(=O)N[C@@H](CCCCN)C(=O)N[C@@H](Cc1c[nH]c2ccccc12)C(N)=O
B8 was tested, and the “cAMP accumulation, fold more potent than the parent analog” value [1] was 11 fold.

B9: [Ac3c^1,M]PTH(1-14) (peptide)
peptide: [Ac3c]VAEIQLMHQ[hArg]AKW-NH2
modifications: N-terminus assumed
SMILES: CC[C@H](C)[C@H](NC(=O)[C@H](CCC(=O)O)NC(=O)[C@H](C)NC(=O)[C@@H](NC(=O)C1(N)CC1)C(C)C)C(=O)N[C@@H](CCC(N)=O)C(=O)N[C@@H](CC(C)C)C(=O)N[C@@H](CCSC)C(=O)N[C@@H](Cc1c[nH]cn1)C(=O)N[C@@H](CCC(N)=O)C(=O)N[C@@H](CCCCNC(=N)N)C(=O)N[C@@H](C)C(=O)N[C@@H](CCCCN)C(=O)N[C@@H](Cc1c[nH]c2ccccc12)C(N)=O
In the case of B9, the “cAMP accumulation, fold more potent than the parent analog” value [1] is reported as roughly 2 fold.
